Results published in paper doi:10.1101/2022.12.21.521443 (2022).

Biological target: S. cerevisiae Pbs2 target peptide (S. cerevisiae, UniProt P08018)
Sequence (P08018 whole entry): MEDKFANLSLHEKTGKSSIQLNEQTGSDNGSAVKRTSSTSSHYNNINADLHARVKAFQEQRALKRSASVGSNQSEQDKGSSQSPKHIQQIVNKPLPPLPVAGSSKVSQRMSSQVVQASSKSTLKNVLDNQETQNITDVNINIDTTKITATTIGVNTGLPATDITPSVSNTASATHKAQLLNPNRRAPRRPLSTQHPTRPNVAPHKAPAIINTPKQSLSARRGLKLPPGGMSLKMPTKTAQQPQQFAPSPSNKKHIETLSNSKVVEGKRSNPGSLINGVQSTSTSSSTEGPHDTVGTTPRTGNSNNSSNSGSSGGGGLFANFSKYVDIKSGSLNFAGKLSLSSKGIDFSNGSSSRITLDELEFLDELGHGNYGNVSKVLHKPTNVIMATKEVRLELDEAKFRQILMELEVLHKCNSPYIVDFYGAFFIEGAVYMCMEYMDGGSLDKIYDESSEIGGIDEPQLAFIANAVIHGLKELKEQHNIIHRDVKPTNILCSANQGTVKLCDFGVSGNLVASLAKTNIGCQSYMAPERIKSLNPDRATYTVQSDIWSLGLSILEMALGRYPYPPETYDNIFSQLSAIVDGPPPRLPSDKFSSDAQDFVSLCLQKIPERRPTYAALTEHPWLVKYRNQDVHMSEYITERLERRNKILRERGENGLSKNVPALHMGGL

Kd: 3000 nM
B1: wild-type S. cerevisiae Sho1 SH3 domain (domain or fragment)
chain: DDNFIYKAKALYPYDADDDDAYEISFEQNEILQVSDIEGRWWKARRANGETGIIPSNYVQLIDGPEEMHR
